Laboratory results: patent US20090048324
Positions count from the first letter of the chain named. Names may count otherwise.

T1: wild type human porphobilinogen synthase (PBGS), parent construct N59/C162A
T1 chain: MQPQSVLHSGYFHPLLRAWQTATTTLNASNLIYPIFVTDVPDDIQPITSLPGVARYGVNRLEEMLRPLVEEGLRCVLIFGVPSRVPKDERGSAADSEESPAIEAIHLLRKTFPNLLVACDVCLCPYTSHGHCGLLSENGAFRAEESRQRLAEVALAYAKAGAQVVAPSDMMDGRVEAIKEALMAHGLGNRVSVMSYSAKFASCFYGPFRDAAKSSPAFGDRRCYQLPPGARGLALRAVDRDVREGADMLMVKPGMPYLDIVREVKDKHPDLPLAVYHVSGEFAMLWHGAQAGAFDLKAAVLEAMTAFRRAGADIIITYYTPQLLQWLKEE

B1: human PBGS variant F12L (protein)
chain: T1 chain with F12L
B2: pea (Pisum sativum) porphobilinogen synthase (protein)
chain: SLPIQRRPRRNRRSPALRSAFQETTLSPANFVYPLFIHEGEEDTPIGAMPGCYRLGWRHGLLEEVAKARDVGVNSVVLFPKIPDALKTPTGDEAYNEDGLVPRSIRLLKDKYPDLIIYTDVALDPYSSDGHDGIVREDGVIMNDETVHQLCKQAVAQARAGADVVSPSDMMDGRVGAMRVALDAEGFQHVSIMSYTAKYASSFYGPFREALDSNPRFGDKKTYQMNPANYREALTEMREDESEGADILLVKPGLPYLDIIRLLRDNSPLPIAAYQVSGEYSMIKAGGALKMIDEEKVMMESLLCLRRAGADIILTYFALQAARTLCGEKR

Columns and labels:
[1] = target: T1, wild type human porphobilinogen …

Row | Protein | specific activity over time after addition of ALA (filled triangles, Pool I) [1] | specific activity over time after addition of ALA (filled triangles, Pool II) [1] | K(0.5) of the protein concentration dependent specific activity (P30124) | K(0.5) of the protein concentration dependent specific activity in the presence of 5 µM morphlock-1 (P30124) | protein concentration giving half maximal specific activity (P30124) | protein concentration giving half maximal specific activity after 30 minutes with 30 µM rosmarinic acid (P30124) | specific activity as a function of pea PBGS concentration, DMSO control (filled circles) (P30124) | specific activity as a function of pea PBGS concentration, with morphlock-1 (open circles) (P30124) | specific activity as a function of pea PBGS subunit concentration (P30124)
1 | B1 | rises from about 1 at 0 min (fit) and about 2.5 at 15 min to a plateau of about 7.5 µmole h-1 mg-1 by 200-270 min | rises from about 18.3 at about 2 min to a plateau of about 22.2-22.4 µmole h-1 mg-1 from 30-45 min up to 150 min |  |  |  |  |  |  | 
2 | B2 |  |  | K(0.5) of 0.064 µM PBGS | more than doubles the K(0.5) to 0.134 µM pea PBGS | half maximal activity at 3.5 µg/ml PBGS | half maximal activity at 13.5 µg/ml PBGS | rises from near 10 at about 0.008 µM to about 250 at about 0.8 µM; fitted line levels at about 275 µmol h-1 mg-1 toward 10 µM (log axis); the half-maximal K(0.5) is printed in the text | curve shifted to the right of the DMSO curve: near 0 at about 0.008 µM, about 240 at about 0.8 µM; fitted line reaches about 290 µmol h-1 mg-1 at 10 µM (log axis); the half-maximal K(0.5) is printed in the text | rises from about 5 at 0.001 µM to a plateau of about 220 at 0.7-1 µM on a log axis
